Results from publication PMC4373793.
Values joined by “and” are separate entries in the source; they are usually repeats but may differ in a detail not shown here. Equal entries are not always repeated.

Key:
[1] = target: Streptococcal surface enolase mutant SEN^K312A (Streptococcus pyogenes (group A Streptococcus)) (UniProt P69949); assay: native MS; Superdex-200 in 200 mM NH4OAc pH 6.8, peak fractions pooled, Synapt HDMS under conditions that preserve non-covalent interactions; single peak of wild type and K312A, elution peak 1 of K362A
[2] = target: Human Glu-plasminogen (circulating form of human plasminogen) (human); assay: SPR; BIAcore 3000; Glu-plasminogen immobilised on a CM5 chip (~10,000 RU; also a lower-density surface ~1,000 RU); 100 nM SEN injected 500 s at room temperature in 10 mM HEPES pH 7.4, 0.15 M NaCl, 3 mM EDTA, 0.005% P20, 30 ul/min; kinetic models could not be fitted, assessed qualitatively
[3] = target: Human Glu-plasminogen (circulating form of human plasminogen) (human); assay: ELISA; plate coated with serial dilutions of Glu-plasminogen (carbonate buffer pH 9.6); wells incubated with 5 ug wild-type or mutant SEN; apparent KD, one-site specific binding
[4] = target: Streptococcal surface enolase mutant SEN^K312A (Streptococcus pyogenes (group A Streptococcus)) (UniProt P69949); assay: crystal structure; hanging drop, 1-3.5 M sodium/potassium phosphate pH 5-7.5, 2% PEG 400; space group P4; octamer = tetramer of dimers
[5] = target: Streptococcal surface enolase (SEN), wild-type, group A Streptococcus (Streptococcus pyogenes) (Streptococcus pyogenes (group A Streptococcus)) (UniProt P69949); assay: native MS; Superdex-200 in 200 mM NH4OAc pH 6.8, peak fractions pooled, Synapt HDMS under conditions that preserve non-covalent interactions; single peak of wild type and K312A, elution peak 1 of K362A
[6] = target: Streptococcal surface enolase (SEN), wild-type, group A Streptococcus (Streptococcus pyogenes) (Streptococcus pyogenes (group A Streptococcus)) (UniProt P69949); assay: crystal structure; hanging drop, 1-3.5 M sodium/potassium phosphate pH 5-7.5, 2% PEG 400; space group P4; octamer = tetramer of dimers
[7] = target: Streptococcal surface enolase mutant SEN^K362A (Streptococcus pyogenes (group A Streptococcus)) (UniProt P69949); assay: native MS; Superdex-200 in 200 mM NH4OAc pH 6.8, peak fractions pooled, Synapt HDMS under conditions that preserve non-covalent interactions; single peak of wild type and K312A, elution peak 1 of K362A
[8] = target: Streptococcal surface enolase mutant SEN^K362A (Streptococcus pyogenes (group A Streptococcus)) (UniProt P69949); assay: crystal structure; hanging drop, 1-3.5 M sodium/potassium phosphate pH 5-7.5, 2% PEG 400; space group P4; octamer = tetramer of dimers

| Substance | stoichiometry N [1] | percent increase in plasminogen binding (against wild-type SEN) [2] | Kd [3] | stoichiometry N [4] | stoichiometry N [5] | stoichiometry N [6] | stoichiometry N [7] | stoichiometry N [8] |
| --- | --- | --- | --- | --- | --- | --- | --- | --- |
| Streptococcal surface enolase mutant SEN^K312A (from UniProt P69949 1-435) (enzyme) | 8 | 196% | 19.3 nM | 8 |  |  |  |  |
| Streptococcal surface enolase (SEN), wild-type, group A Streptococcus (Streptococcus pyogenes) (from UniProt P69949 1-435) (enzyme) |  |  | 14.1 nM |  | 8 | 8 |  |  |
| Streptococcal surface enolase mutant SEN^K362A (from UniProt P69949 1-435) (enzyme) |  | 341% | 1.85 nM |  |  |  | 8 and 7 | 8 |
